Laboratory results taken from article doi:10.1101/2021.02.07.430161 (bioRxiv, 2021).
Read-outs that look alike come from different tables or passages of the source. Blank lines part the entries; values can stand above or below the binder they belong to.

How the values were obtained:
[1] = target: T1, Poly(A) binding protein cytoplasmic 1 (PABPC1), full-length recombinant, His-tagged (UniProt P11940-1 1-636); assay: SEC-MALS
[2] = target: T1, Poly(A) binding protein cytoplasmic 1 …; assay: SEC-MALS; remark: listed apart in the source
[3] = target: PABPC1 RRM23 (98-293) (UniProt P11940-1 98-293); assay: native gel or EMSA
PABPC1 RRM23 (98-293), sequence (P11940 98-293): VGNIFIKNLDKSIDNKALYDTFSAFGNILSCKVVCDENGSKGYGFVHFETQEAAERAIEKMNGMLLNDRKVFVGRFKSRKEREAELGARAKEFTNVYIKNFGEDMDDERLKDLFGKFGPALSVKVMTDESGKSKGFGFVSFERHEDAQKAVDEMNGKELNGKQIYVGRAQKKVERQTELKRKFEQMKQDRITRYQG

[4] = target: PABPC1 (1-372) (UniProt P11940-1 1-372); assay: native gel or EMSA
PABPC1 (1-372), sequence (P11940 1-372): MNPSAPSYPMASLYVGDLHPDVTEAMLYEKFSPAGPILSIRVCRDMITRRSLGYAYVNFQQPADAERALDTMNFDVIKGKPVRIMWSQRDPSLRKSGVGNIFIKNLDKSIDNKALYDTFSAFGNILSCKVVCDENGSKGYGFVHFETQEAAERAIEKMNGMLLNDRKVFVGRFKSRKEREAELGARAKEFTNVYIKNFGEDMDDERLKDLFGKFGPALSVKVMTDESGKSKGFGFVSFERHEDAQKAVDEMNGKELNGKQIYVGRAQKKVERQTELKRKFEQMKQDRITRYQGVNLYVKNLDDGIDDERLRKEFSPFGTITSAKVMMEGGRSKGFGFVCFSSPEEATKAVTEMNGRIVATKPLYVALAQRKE

[5] = target: PABPC1 full-length (His);Paip2 (Paip2a) full-length (human?;human?, UniProt P11940;Q9BPZ3 1-636;1-127, |); assay: EMSA
PABPC1 full-length (His);Paip2 (Paip2a) full-length, sequence (P11940 whole entry, one chain of several): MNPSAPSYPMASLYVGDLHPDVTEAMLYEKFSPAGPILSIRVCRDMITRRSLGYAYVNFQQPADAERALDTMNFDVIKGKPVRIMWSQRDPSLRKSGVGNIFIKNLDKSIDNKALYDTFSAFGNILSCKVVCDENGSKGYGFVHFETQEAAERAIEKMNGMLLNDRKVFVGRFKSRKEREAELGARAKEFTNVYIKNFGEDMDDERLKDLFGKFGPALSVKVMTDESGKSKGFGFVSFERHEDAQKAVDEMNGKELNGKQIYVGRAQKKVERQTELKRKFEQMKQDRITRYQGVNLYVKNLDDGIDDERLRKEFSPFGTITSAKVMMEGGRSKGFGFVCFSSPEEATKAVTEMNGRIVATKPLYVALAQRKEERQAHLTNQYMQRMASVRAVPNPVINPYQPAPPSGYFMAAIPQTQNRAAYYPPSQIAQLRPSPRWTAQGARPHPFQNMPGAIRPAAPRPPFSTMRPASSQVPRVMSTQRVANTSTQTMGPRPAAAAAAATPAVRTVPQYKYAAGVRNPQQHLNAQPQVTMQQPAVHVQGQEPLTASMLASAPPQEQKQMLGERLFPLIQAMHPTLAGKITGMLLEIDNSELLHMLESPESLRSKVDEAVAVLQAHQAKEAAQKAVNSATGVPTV

T1 sequence (P11940 whole entry): as the sequence (P11940 whole entry, one chain of several) above

stoichiometry N [1]: 1 Paip2 per PABPC1
stoichiometry N [2]: 2 Paip2 per PABPC1
B1: PABPC1-interacting protein 2 (Paip2), full-length recombinant (natural protein, UniProt Q9BPZ3 1-127, looked up)
chain: MKDPSRSSTSPSIINEDVIINGHSHEDDNPFAEYMWMENEEEFNRQIEEELWEEEFIERCFQEMLEEEEEHEWFIPARDLPQTMDQIQDQFNDLVISDGSSLEDLVVKSNLNPNAKEFVPGVKYGNI

binding result [3]: binds
binding result [4]: binds
B2: Paip2 (22-75) (domain or fragment, UniProt Q9BPZ3 22-75, looked up)
chain: GHSHEDDNPFAEYMWMENEEEFNRQIEEELWEEEFIERCFQEMLEEEEEHEWFI

Binder: AAAAAAAAAAAAAAAAAAAAAAAAA (ssRNA) [r(A)25]
binding result [5]: binds
